This passage reports Kd results from patent US20050239134.

The target in the data set is TGF-beta-1 (TGF-β1 homodimer) (Homo sapiens?) (UniProt P01137). The data set can be described thus: EMSA. Conditions: PS at dA and dC (5' of A and C; from dATP(αS)/dCTP(αS)); apparent; naive library control; room temp 30 min.
TGF-beta-1 (TGF-β1 homodimer) (Homo sapiens?), sequence (P01137 279-390): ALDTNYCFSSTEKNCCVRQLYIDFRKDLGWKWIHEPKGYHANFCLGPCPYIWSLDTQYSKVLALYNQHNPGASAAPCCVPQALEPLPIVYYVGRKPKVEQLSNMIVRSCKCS

Turning to “CAGTCCGGATGCTCTAGAGTGACNNNNNNNNNNNNNNNNNNNNNNNNNNNNNNCGAATCTCGTGAAGCCGAGCG [initial 74-mer N30 thiophosphate ssDNA library]”, the Kd was determined as 11 µM.
